This note sets out measurements from IntAct's records for PubMed 10373560.

The chains are these.
B1: Membrane-associated tyrosine- and threonine-specific cdc2-inhibitory kinase (Homo sapiens), Q99640 (parent)
chain: MLERPPALAMPMPTEGTPPPLSGTPIPVPAYFRHAEPGFSLKRPRGLSRSLPPPPPAKGSIPISRLFPPRTPGWHQLQPRRVSFRGEASETLQSPGYDPSRPESFFQQSFQRLSRLGHGSYGEVFKVRSKEDGRLYAVKRSMSPFRGPKDRARKLAEVGSHEKVGQHPCCVRLEQAWEEGGILYLQTELCGPSLQQHCEAWGASLPEAQVWGYLRDTLLALAHLHSQGLVHLDVKPANIFLGPRGRCKLGDFGLLVELGTAGAGEVQEGDPRYMAPELLQGSYGTAADVFSLGLTILEVACNMELPHGGEGWQQLRQGYLPPEFTAGLSSELRSVLVMMLEPDPKLRATAEALLALPVLRQPRAWGVLWCMAAEALSRGWALWQALLALLCWLWHGLAHPASWLQPLGPPATPPGSPPCSLLLDSSLSSNWDDDSLGPSLSPEAVLARTVGSTSTPRSRCTPRDALDLSDINSEPPRGSFPSFEPRNLLSLFEDTLDPT

The variants in this assay derive from B1. The settings on record: with ccnb1_human CCNB1, P14635.
Chain of ccnb1_human CCNB1, P14635 (P14635 whole entry): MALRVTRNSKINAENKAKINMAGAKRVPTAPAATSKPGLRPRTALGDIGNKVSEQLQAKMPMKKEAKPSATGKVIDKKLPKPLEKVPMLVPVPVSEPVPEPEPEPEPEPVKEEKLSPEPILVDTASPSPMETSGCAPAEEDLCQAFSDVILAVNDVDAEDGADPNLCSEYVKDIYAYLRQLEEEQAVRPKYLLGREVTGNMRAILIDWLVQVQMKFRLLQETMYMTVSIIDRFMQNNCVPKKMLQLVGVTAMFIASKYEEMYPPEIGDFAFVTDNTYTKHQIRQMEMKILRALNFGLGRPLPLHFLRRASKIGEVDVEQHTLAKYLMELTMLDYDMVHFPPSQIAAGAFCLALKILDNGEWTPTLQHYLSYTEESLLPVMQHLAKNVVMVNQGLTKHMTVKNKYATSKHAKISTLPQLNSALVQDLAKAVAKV
As to R486A;N487A;L488A, the “effect of a mutation on the interaction” value is “decreasing interaction”.
